1 protein from PMC3787022, “Small Angle X-Ray Scattering Studies of Mitochondrial Glutaminase C Reveal Extended Flexible Regions, and Link Oligomeric State with Enzyme Activity” (PLoS ONE, 2013) can be followed below.

Data set [1] deals with the molecule itself. Nature of the data set: SEC-MALS; phosphate screen, K2HPO4 0, 25, 50 and 100 mM; protein 5 uM in the peak (injected 70 uM); WTC-030S5 column, 20 mM Tris-HCl pH 8.5, 500 mM NaCl, 23°C. (In general: Size exclusion chromatography separates by hydrodynamic size, large species first.)
Data set [2] concerns the molecule itself. Briefly: SEC-MALS; protein concentration screen 1.4-9.7 uM, no K2HPO4; WTC-030S5 column, 20 mM Tris-HCl pH 8.5, 500 mM NaCl, 23°C.
For data set [3], the target named is D3Z7P3. Briefly: SAXS; phosphate (Pi) titration 0-100 mM, microfluidic mixing chip, 36 sec mixing time; GACwt constant at 30.7 uM, GACΔC constant at 33.8 uM; 20 mM Tris-HCl, 500 mM NaCl, 0.5 mM TCEP, 1 mM sodium azide; analysed with OLIGOMER
The note with it: other: SAXS.

B1: Glutaminase C wildtype construct (mouse GAC, residues 73-603) (enzyme, UniProt D3Z7P3-2 73-603, looked up)
chain: SSSPSEILQELGKGGTPPQQQQQQQQQPGASPPAAPGPKDSPGETDAFGNSEGKEMVAAGDNKIKQGLLPSLEDLLFYTIAEGQEKIPVHKFITALKSTGLRTSDPRLKECMDMLRLTLQTTSDGVMLDKDLFKKCVQSNIVLLTQAFRRKFVIPDFMSFTSHIDELYESAKKQSGGKVADYIPQLAKFSPDLWGVSVCTVDGQRHSIGDTKVPFCLQSCVKPLKYAIAVNDLGTEYVHRYVGKEPSGLRFNKLFLNEDDKPHNPMVNAGAIVVTSLIKQGVNNAEKFDYVMQFLNKMAGNEYVGFSNATFQSERESGDRNFAIGYYLKEKKCFPEGTDMVGILDFYFQLCSIEVTCESASVMAATLANGGFCPITGERVLSPEAVRNTLSLMHSCGMYDFSGQFAFHVGLPAKSGVAGGILLVVPNVMGMMCWSPPLDKMGNSVKGIHFCHDLVSLCNFHNYDNLRHFAKKLDPRREGGDQRHSFGPLDYESLQQELALKDTVWKKVSPESSDDTSTTVVYRMESLGERS
notes: GAC isoform of 603 residues; also called GACwt; GAC wildtype; source: expressed from a pET28a vector, purified (Ni-column, anion-exchange, gel filtration); not shown: histidine tag, N-terminal, cleaved
As a reminder, the stoichiometry N is a count of units in the complex or per binding partner. Regarding B1, the “stoichiometry N” value in data set [1] is approximately 4; in data set [2] it was 4. Moreover, in data set [3], the “volume fraction of octamers at 80 mM Pi” value is “a maximum of 38% at 80 mM Pi”.
